# Source: the Immune Epitope Database (IEDB)
# Key:
# Assay in all cases: IEDB peptide-MHC binding, purified MHC/competitive/radioactivity; filed as Kd, often an IC50 or EC50 that approximates it; ≥ and ≤ were set here for values at or beyond the usual limits of such assays
# HLA-A*03:01 = target: HLA-A*03:01
# HLA-A*11:01 = target: HLA-A*11:01
# HLA-A*31:01 = target: HLA-A*31:01
# HLA-A*33:01 = target: HLA-A*33:01
# HLA-A*68:01 = target: HLA-A*68:01
# [1] = source organism: Vaccinia virus WR
# [2] = source organism: Lymphocytic choriomeningitis virus (strain Armstrong)
# [3] = source organism: SARS coronavirus Tor2
# [4] = source organism: Vaccinia virus Copenhagen
# [5] = source organism: Triticum aestivum
# [6] = source organism: Dengue virus 1 Brazil/97-11/1997
# [7] = source organism: Dengue virus 4 Philippines/H241/1956
# [8] = source organism: Dengue virus 2 Jamaica/1409/1983
# [9] = source organism: Dengue virus 3 Martinique/1243/1999
Sequence,Kd (HLA-A*03:01; [1]) [µM],Kd (HLA-A*11:01; [1]) [µM],Kd (HLA-A*31:01; [1]) [µM],Kd (HLA-A*33:01; [1]) [µM],Kd (HLA-A*68:01; [1]) [µM],other results
NFFTELENKK,≥ 61.8,≥ 32.3,≥ 70,≥ 32.8,6.67,
NFMVSVSDFR,9.96,4.03,0.0939,0.0331,0.00656,
NLPYNWKNFY,1.78,4.36,1.72,18.6,0.626,
NSESLSLISH,,,,,,Kd (HLA-A*03:01; [2]): ≥ 23.4 µM; Kd (HLA-A*11:01; [2]): 8.05 µM; Kd (HLA-A*31:01; [2]): 16.9 µM; Kd (HLA-A*33:01; [2]): ≥ 31.8 µM; Kd (HLA-A*68:01; [2]): ≥ 29.3 µM
NTLSERISSK,0.0488,0.000736,1.41,0.404,0.00948,
NTPLHIVCSK,0.0324,0.147,0.233,7.19,0.0108,
NTRQLKLLEY,0.969,0.152,9.83,10.8,1.59,
NVIEDITFLR,6.72,0.23,0.0644,0.0125,0.00159,
NYSKFWYLEH,,,,,,Kd (HLA-A*03:01; [2]): ≥ 70 µM; Kd (HLA-A*11:01; [2]): ≥ 69.7 µM; Kd (HLA-A*31:01; [2]): 5.84 µM; Kd (HLA-A*33:01; [2]): 0.3 µM; Kd (HLA-A*68:01; [2]): ≥ 70.1 µM
PISELSRLRY,3.27,0.735,≥ 70,15.5,≥ 44.9,
PQVGGLTSIK,,,,,,Kd (HLA-A*03:01; [3]): ≥ 10 µM; Kd (HLA-A*11:01; [3]): 6.37 µM; Kd (HLA-A*31:01; [3]): ≥ 70 µM; Kd (HLA-A*33:01; [3]): ≥ 70 µM; Kd (HLA-A*68:01; [3]): ≥ 37.5 µM
QLDEKSSIK,0.204,0.51,4.3,≥ 56.8,14,
QLMYALEPRK,,,,,,Kd (HLA-A*03:01; [4]): 0.15 µM; Kd (HLA-A*11:01; [4]): 0.085 µM; Kd (HLA-A*31:01; [4]): 8.37 µM; Kd (HLA-A*33:01; [4]): ≥ 70 µM; Kd (HLA-A*68:01; [4]): 0.0838 µM
QQHNIVHGK,,,,,,Kd (HLA-A*03:01; [5]): 12.5 µM; Kd (HLA-A*11:01; [5]): 0.914 µM; Kd (HLA-A*31:01; [5]): 2.37 µM; Kd (HLA-A*33:01; [5]): ≥ 77.7 µM; Kd (HLA-A*68:01; [5]): 0.728 µM
QSADASTFLK,,,,,,Kd (HLA-A*03:01; [3]): 0.348 µM; Kd (HLA-A*11:01; [3]): 0.0102 µM; Kd (HLA-A*31:01; [3]): 1.02 µM; Kd (HLA-A*33:01; [3]): 5.29 µM; Kd (HLA-A*68:01; [3]): 0.0494 µM
RFWDLVHRER,,,,,,Kd (HLA-A*31:01; [6]): ≥ 49.8 µM; Kd (HLA-A*33:01; [6]): 0.0197 µM
RIMQRGLFGK,,,,,,Kd (HLA-A*03:01; [7]): 0.00543 µM; Kd (HLA-A*11:01; [7]): 0.0295 µM; Kd (HLA-A*31:01; [7]): 0.0109 µM
STPIVVQMTK,,,,,,Kd (HLA-A*11:01; [3]): 0.0142 µM
TFHTMWHVTR,,,,,,Kd (HLA-A*31:01; [8]): 0.0191 µM; Kd (HLA-A*33:01; [8]): 0.00795 µM
TLFGPEREK,,,,,,Kd (HLA-A*03:01; [7]): 0.0859 µM
VFHTMWHVTR,,,,,,Kd (HLA-A*31:01; [9]): 0.00453 µM; Kd (HLA-A*33:01; [9]): 0.135 µM
